Data: IntAct's records for PubMed 23706742

B1: GTP-binding protein Di-Ras1 (Mus musculus), Q91Z61 (parent)
chain: MPEQSNDYRVVVFGAGGVGKSSLVLRFVKGTFRDTYIPTIEDTYRQVISCDKSVCTLQITDTTGSHQFPAMQRLSISKGHAFILVFSVTSKQSLDELSPIYKLIVQIKGSVEDIPIMLVGNKCDETQREVHTREAQAVAQEWKCAFMETSAKMNYNVKELFQELLTLETRRSVSLSVDGKRSSKQKRADRIKGKCALM
B2: Phosphatidylinositol 4,5-bisphosphate 3-kinase catalytic subunit beta isoform (Mus musculus), Q8BTI9 (parent)
chain: MPPAMADNLDIWAVDSQIASDGAISVDFLLPTGIYIQLEVPREATISYIKQMLWKQVHNYPMFNLLMDIDSYMFACVNQTAVYEELEDETRRLCDVRPFLPVLKLVTRSCDPAEKLDSKIGVLIGKGLHEFDALKDPEVNEFRRKMRKFSEAKIQSLVGLSWIDWLKHTYPPEHEPSVLENLEDKLYGGKLVVAVHFENSQDVFSFQVSPNLNPIKINELAIQKRLTIRGKEDEASPCDYVLQVSGRVEYVFGDHPLIQFQYIRNCVMNRTLPHFILVECCKIKKMYEQEMIAIEAAINRNSSNLPLPLPPKKTRVISHIWDNNNPFQITLVKGNKLNTEETVKVHVRAGLFHGTELLCKTVVSSEISGKNDHIWNEQLEFDINICDLPRMARLCFAVYAVLDKVKTKKSTKTINPSKYQTIRKAGKVHYPVAWVNTMVFDFKGQLRSGDVILHSWSSFPDELEEMLNPMGTVQTNPYAENATALHITFPENKKQPCYYPPFDKIIEKAAELASGDSANVSSRGGKKFLAVLKEILDRDPLSQLCENEMDLIWTLRQDCRENFPQSLPKLLLSIKWNKLEDVAQLQALLQIWPKLPPREALELLDFNYPDQYVREYAVGCLRQMSDEELSQYLLQLVQVLKYEPFLDCALSRFLLERALDNRRIGQFLFWHLRSEVHTPAVSVQFGVILEAYCRGSVGHMKVLSKQVEALNKLKTLNSLIKLNAVKLSRAKGKEAMHTCLKQSAYREALSDLQSPLNPCVILSELYVEKCKYMDSKMKPLWLVYSSRAFGEDSVGVIFKNGDDLRQDMLTLQMLRLMDLLWKEAGLDLRMLPYGCLATGDRSGLIEVVSTSETIADIQLNSSNVAATAAFNKDALLNWLKEYNSGDDLDRAIEEFTLSCAGYCVASYVLGIGDRHSDNIMVKKTGQLFHIDFGHILGNFKSKFGIKRERVPFILTYDFIHVIQQGKTGNTEKFGRFRQCCEDAYLILRRHGNLFITLFALMLTAGLPELTSVKDIQYLKDSLALGKSEEEALKQFKQKFDEALRESWTTKVNWMAHTVRKDYRS

Variants of: B1
Details: with pk3cb_mouse Pik3cb

**Q.** With MPEQSNDYRVVVFGAGGVGKSSLVLRFVKGTFRDTYDPTIEDTYRQVISCDKSVCTLQITDTTGSHQFPAMQRLSISKGHAFILVFSVTSKQSLDELSPIYKLIVQIKGSVEDIPIMLVGNKCDETQREVHTREAQAVAQEWKCAFMETSAKMNYNVKELFQELLTLETRRSVSLSVDGKRSSKQKRADRIKGKCALM [I37D] as the variant, how does the “effect of a mutation on the interaction” value read?
**A.** decreasing interaction strength

Variants of: B2
Details: with rac1_mouse Rac1, P63001

**Q.** K231A was tested. Which “effect of a mutation on the interaction” value did it give?
**A.** decreasing interaction strength

**Q.** With S205D;K224A as the variant, how does the “effect of a mutation on the interaction” value read?
**A.** decreasing interaction strength

**Q.** How did the “effect of a mutation on the interaction” value turn out when Q207D was run?
**A.** decreasing interaction strength

**Q.** With T227D as the variant, how does the “effect of a mutation on the interaction” value read?
**A.** decreasing interaction strength

**Q.** How did the “effect of a mutation on the interaction” value turn out when A194K was run?
**A.** disrupting interaction strength

**Q.** With A194S as the variant, how does the “effect of a mutation on the interaction” value read?
**A.** decreasing interaction strength

**Q.** With K190A as the variant, how does the “effect of a mutation on the interaction” value read?
**A.** decreasing interaction strength

**Q.** How did the “effect of a mutation on the interaction” value turn out when Y187A was run?
**A.** disrupting interaction strength

**Q.** How did the “effect of a mutation on the interaction” value turn out when V203S was run?
**A.** disrupting interaction strength

**Q.** Which “effect of a mutation on the interaction” value does the source give for V203K here?
**A.** disrupting interaction strength

**Q.** With V192S as the variant, how does the “effect of a mutation on the interaction” value read?
**A.** disrupting interaction strength

**Q.** V192K was tested. Which “effect of a mutation on the interaction” value did it give?
**A.** disrupting interaction strength

**Q.** With E183A as the variant, how does the “effect of a mutation on the interaction” value read?
**A.** decreasing interaction strength

**Q.** For K185A, which “effect of a mutation on the interaction” value is on record?
**A.** decreasing interaction strength

**Q.** E219A was tested. Which “effect of a mutation on the interaction” value did it give?
**A.** decreasing interaction strength

**Q.** Q223D was tested. Which “effect of a mutation on the interaction” value did it give?
**A.** decreasing interaction strength

**Q.** For D202A, which “effect of a mutation on the interaction” value is on record?
**A.** disrupting interaction strength

**Q.** How did the “effect of a mutation on the interaction” value turn out when R229A was run?
**A.** disrupting interaction strength

**Q.** How did the “effect of a mutation on the interaction” value turn out when L186A was run?
**A.** disrupting interaction strength

Variants of: B2
Details: with cdc42_mouse Cdc42, P60766
cdc42_mouse Cdc42, P60766, sequence (P60766 whole entry, looked up): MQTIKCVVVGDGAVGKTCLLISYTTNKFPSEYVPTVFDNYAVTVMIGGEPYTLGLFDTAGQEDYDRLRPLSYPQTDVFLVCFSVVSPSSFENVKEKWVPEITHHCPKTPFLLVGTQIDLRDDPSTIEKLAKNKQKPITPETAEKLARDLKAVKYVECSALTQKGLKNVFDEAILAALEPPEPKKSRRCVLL

**Q.** How did the “effect of a mutation on the interaction” value turn out when K231A was run?
**A.** disrupting interaction strength

**Q.** For S205D;K224A, which “effect of a mutation on the interaction” value is on record?
**A.** decreasing interaction strength

**Q.** For Q207D, which “effect of a mutation on the interaction” value is on record?
**A.** decreasing interaction strength

**Q.** For T227D, which “effect of a mutation on the interaction” value is on record?
**A.** disrupting interaction strength

**Q.** How did the “effect of a mutation on the interaction” value turn out when A194K was run?
**A.** disrupting interaction strength

**Q.** For A194S, which “effect of a mutation on the interaction” value is on record?
**A.** decreasing interaction strength

**Q.** With K190A as the variant, how does the “effect of a mutation on the interaction” value read?
**A.** decreasing interaction strength

**Q.** How did the “effect of a mutation on the interaction” value turn out when Y187A was run?
**A.** disrupting interaction strength

**Q.** V203S was tested. Which “effect of a mutation on the interaction” value did it give?
**A.** disrupting interaction strength

**Q.** For V203K, which “effect of a mutation on the interaction” value is on record?
**A.** disrupting interaction strength

**Q.** For V192S, which “effect of a mutation on the interaction” value is on record?
**A.** disrupting interaction strength

**Q.** V192K was tested. Which “effect of a mutation on the interaction” value did it give?
**A.** disrupting interaction strength

**Q.** How did the “effect of a mutation on the interaction” value turn out when E183A was run?
**A.** decreasing interaction strength

**Q.** Which “effect of a mutation on the interaction” value does the source give for K185A here?
**A.** decreasing interaction strength

**Q.** For E219A, which “effect of a mutation on the interaction” value is on record?
**A.** decreasing interaction strength

**Q.** How did the “effect of a mutation on the interaction” value turn out when Q223D was run?
**A.** decreasing interaction strength

**Q.** D202A was tested. Which “effect of a mutation on the interaction” value did it give?
**A.** disrupting interaction strength

**Q.** R229A was tested. Which “effect of a mutation on the interaction” value did it give?
**A.** disrupting interaction strength

**Q.** L186A was tested. Which “effect of a mutation on the interaction” value did it give?
**A.** disrupting interaction strength

Variants of: B2
Details: with cdc42_mouse Cdc42, P60766
Remark: another data set of the same source

**Q.** With S205D;K224A as the variant, how does the “effect of a mutation on the interaction” value read?
**A.** disrupting interaction strength

Variants of: B2
Details: with rash_mouse Hras

**Q.** For S205D;K224A, which “effect of a mutation on the interaction” value is on record?
**A.** disrupting interaction strength

Variants of: B2
Details: with rac1_mouse Rac1, P63001
Remark: another data set of the same source

**Q.** For S205D;K224A, which “effect of a mutation on the interaction” value is on record?
**A.** disrupting interaction

Variants of: B2
Details: with cdc42_mouse Cdc42, P60766
Remark: another data set of the same source

**Q.** For S205D;K224A, which “effect of a mutation on the interaction” value is on record?
**A.** disrupting interaction

Variants of: B2
Details: with rac1_mouse Rac1, P63001
Remark: another data set of the same source

**Q.** How did the “effect of a mutation on the interaction” value turn out when S205D;V244A was run?
**A.** disrupting interaction strength
